Usually Ki stands for a dissociation constant, usually derived from enzyme kinetics or from competition with a known ligand. A higher Ki goes with weaker binding.

Six molecules from patent US20100311648A1 (AstraZeneca / MedImmune, published 2010) can be followed below.

Positions of bridges follow the written chain, without caps; N, C: chain ends. Non-standard residues stand in square brackets, D forms with d. dPhe(4-CN) = N#Cc1ccc(C[C@@H](N)C(=O)O)cc1; dPhe(2-Cl) = N[C@H](Cc1ccccc1Cl)C(=O)O; dPhe(4-F) = N[C@H](Cc1ccc(F)cc1)C(=O)O; Orn = NCCC[C@H](N)C(=O)O

Sequences and labels used below:
B1: Ac-Arg-cyclo(Glu-Asn-D-Phe(2-Cl)-Arg-Trp-Orn)-NH2 (peptide)
peptide: Ac-REN[dPhe(2-Cl)]RW[Orn]-NH2
modifications: lactam 2-7
SMILES: CC(=O)N[C@@H](CCCNC(=N)N)C(=O)N[C@H]1CCC(=O)NCCC[C@@H](C(N)=O)NC(=O)[C@H](Cc2c[nH]c3ccccc23)NC(=O)[C@H](CCCNC(=N)N)NC(=O)[C@@H](Cc2ccccc2Cl)NC(=O)[C@H](CC(N)=O)NC1=O
notes: also called No. 84
B2: Ac-Arg-cyclo(Glu-Glu-D-Phe(4-CN)-Arg-Trp-Orn)-NH2 (peptide)
peptide: Ac-REE[dPhe(4-CN)]RW[Orn]-NH2
modifications: lactam 2-7
SMILES: CC(=O)N[C@@H](CCCNC(=N)N)C(=O)N[C@H]1CCC(=O)NCCC[C@@H](C(N)=O)NC(=O)[C@H](Cc2c[nH]c3ccccc23)NC(=O)[C@H](CCCNC(=N)N)NC(=O)[C@@H](Cc2ccc(C#N)cc2)NC(=O)[C@H](CCC(=O)O)NC1=O
B3: Ac-Arg-cyclo(Glu-Asp-D-Phe(4-CN)-Arg-Trp-Orn)-OH (peptide)
peptide: Ac-RED[dPhe(4-CN)]RW[Orn]-OH
modifications: lactam 2-7
SMILES: CC(=O)N[C@@H](CCCNC(=N)N)C(=O)N[C@H]1CCC(=O)NCCC[C@@H](C(=O)O)NC(=O)[C@H](Cc2c[nH]c3ccccc23)NC(=O)[C@H](CCCNC(=N)N)NC(=O)[C@@H](Cc2ccc(C#N)cc2)NC(=O)[C@H](CC(=O)O)NC1=O
notes: also called No. 107
B4: Ac-Arg-cyclo(Glu-Asp-D-Phe(4-CN)-Arg-Trp-Orn)-NH2 (peptide)
peptide: Ac-RED[dPhe(4-CN)]RW[Orn]-NH2
modifications: lactam 2-7
SMILES: CC(=O)N[C@@H](CCCNC(=N)N)C(=O)N[C@H]1CCC(=O)NCCC[C@@H](C(N)=O)NC(=O)[C@H](Cc2c[nH]c3ccccc23)NC(=O)[C@H](CCCNC(=N)N)NC(=O)[C@@H](Cc2ccc(C#N)cc2)NC(=O)[C@H](CC(=O)O)NC1=O
notes: also called No. 106

The target in the first test is T1, human melanocortin-4 receptor (human, UniProt P32245 1-332). Kind of test: cell-based or functional assay.
T1 sequence (P32245 whole entry): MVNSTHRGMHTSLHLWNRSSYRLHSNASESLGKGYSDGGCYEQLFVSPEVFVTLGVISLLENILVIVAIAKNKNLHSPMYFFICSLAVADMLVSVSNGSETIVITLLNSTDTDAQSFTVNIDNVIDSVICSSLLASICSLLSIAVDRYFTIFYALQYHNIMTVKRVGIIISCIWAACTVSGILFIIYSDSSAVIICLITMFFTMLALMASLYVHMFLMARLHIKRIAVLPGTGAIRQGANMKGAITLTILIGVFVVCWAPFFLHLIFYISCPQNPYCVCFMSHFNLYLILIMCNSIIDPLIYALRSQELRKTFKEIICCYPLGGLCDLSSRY
Consider B1, for which the “EC50, cAMP, 0.1 ng/mL Doxycycline” value amounted to 0.633 nM; the “EC50, cAMP, 10 ng/mL Doxycycline” value came out at 0.09 nM; the “Intrinsic Activity, cAMP, 0.1 ng/mL Doxycycline” value came to 78%; the “Intrinsic Activity, cAMP, 10 ng/mL Doxycycline” value is 97%.
Turning to B2, the “EC50, cAMP, 10 ng/mL Doxycycline” value worked out at 9 nM; the “Intrinsic Activity, cAMP, 0.1 ng/mL Doxycycline” value came to 3%; the “Intrinsic Activity, cAMP, 10 ng/mL Doxycycline” value was 59%.
With B3, the “Intrinsic Activity, cAMP, 0.1 ng/mL Doxycycline” value turned out to be 4% and the “Intrinsic Activity, cAMP, 10 ng/mL Doxycycline” value is 64%.
With Ac-REN[dPhe(4-F)]RW[Orn]-NH2 (lactam 2-7, also called No. 69) [Ac-Arg-cyclo(Glu-Asn-D-Phe(4-F)-Arg-Trp-Orn)-NH2], the “EC50, cAMP, 0.1 ng/mL Doxycycline” value was determined as 0.25 nM; the “EC50, cAMP, 10 ng/mL Doxycycline” value turned out to be 0.095 nM; the “Intrinsic Activity, cAMP, 0.1 ng/mL Doxycycline” value was determined as 76%; the “Intrinsic Activity, cAMP, 10 ng/mL Doxycycline” value is 92%.
With B4, the “EC50, cAMP, 10 ng/mL Doxycycline” value was 113 nM; the “Intrinsic Activity, cAMP, 0.1 ng/mL Doxycycline” value came to 3%; the “Intrinsic Activity, cAMP, 10 ng/mL Doxycycline” value stood at 77%.
In the case of Ac-REN[dPhe(4-CN)]RW[Orn]-NH2 (lactam 2-7; also: acetate salt, acetate salt form; also called Ex 43) [Ac-Arg-cyclo(Glu-Asn-D-Phe(4-CN)-Arg-Trp-Orn)-NH2], the “EC50, cAMP, 0.1 ng/mL Doxycycline” value was found to be 1 nM; the “EC50, cAMP, 10 ng/mL Doxycycline” value was 0.177 nM; the “Intrinsic Activity, cAMP, 0.1 ng/mL Doxycycline” value worked out at 43%; the “Intrinsic Activity, cAMP, 10 ng/mL Doxycycline” value was 100%.

The target in the next test is T2, melanocortin-1 receptor (mouse (B-16 melanoma cells); in some …, UniProt Q01727 1-315).
T2 construct: whole, on cells; membrane homogenates; also called MC1-R; mouse B16 MC1-R
T2 sequence (Q01727 whole entry): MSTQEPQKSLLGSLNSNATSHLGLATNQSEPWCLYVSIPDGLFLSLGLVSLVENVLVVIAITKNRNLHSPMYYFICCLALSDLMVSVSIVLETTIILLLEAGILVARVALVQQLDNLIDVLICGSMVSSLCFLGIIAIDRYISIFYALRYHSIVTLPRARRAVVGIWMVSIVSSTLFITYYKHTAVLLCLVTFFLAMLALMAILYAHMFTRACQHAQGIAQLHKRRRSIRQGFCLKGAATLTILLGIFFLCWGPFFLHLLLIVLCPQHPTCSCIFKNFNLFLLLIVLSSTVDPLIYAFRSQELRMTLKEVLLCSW
The test can be described thus: [I125]-NDP-α-MSH competition, MC1-R membranes. On the procedure: (§1) A competitive inhibition binding assay was performed for exemplified peptides according to the invention using membrane homogenates prepared from HEK-293 cells that express recombinant hMC4-R, hMC3-R, or hMC5-R, and from B-16 mouse melanoma cells (containing endogenous MC1-R). In some instances, HEK-293 cells that express recombinant hMC1-R were employed. Assays were performed in 96 well GF/B Millipore multiscreen filtration plates (MAFB NOB10) pre-coated with 0.5% bovine serum albumin (Fraction V). […] After incubation for 60 minutes at 37° C., the assay mixture was filtered and the membranes washed three times with ice-cold buffer. Filters were dried and counted in a gamma counter for bound radioactivity. […] Each assay was conducted in triplicate and the actual mean values are described, with results less than 0% reported as 0%. Ki values for test peptides of the present invention were determined using Graph-Pad Prism® curve-fitting software.
B1 showed an inhibitory constant (Ki) of 245 nM.
In turn, B2 registered a Ki of 10000 nM.
In turn, B3 had a Ki of 10000 nM.
Consider Ac-REN[dPhe(4-F)]RW[Orn]-NH2 (lactam 2-7, also called No. 69) [Ac-Arg-cyclo(Glu-Asn-D-Phe(4-F)-Arg-Trp-Orn)-NH2], for which the Ki amounted to 150 nM.
Molecule B4 gave a Ki of 10000 nM.
For the molecule Ac-REN[dPhe(4-CN)]RW[Orn]-NH2 (lactam 2-7; also: acetate salt, acetate salt form; also called Ex 43) [Ac-Arg-cyclo(Glu-Asn-D-Phe(4-CN)-Arg-Trp-Orn)-NH2], the Ki worked out at 870 nM.

The next test concerns the target T1, human melanocortin-4 receptor. The test can be described thus: [I125]-NDP-α-MSH competition, hMC4-R HEK-293 membranes. The method, then:
as §1
For B1, the Ki was determined as 7 nM.
Same read-out and setting: with B2 the figure was 128 nM.
As for B3, the Ki is 6460 nM.
For the molecule Ac-REN[dPhe(4-F)]RW[Orn]-NH2 (lactam 2-7, also called No. 69) [Ac-Arg-cyclo(Glu-Asn-D-Phe(4-F)-Arg-Trp-Orn)-NH2], the affinity corresponds to a Ki of 3 nM.
Regarding B4, the affinity, expressed as Ki, was 647 nM.
Ac-REN[dPhe(4-CN)]RW[Orn]-NH2 (lactam 2-7; also: acetate salt, acetate salt form; also called Ex 43) [Ac-Arg-cyclo(Glu-Asn-D-Phe(4-CN)-Arg-Trp-Orn)-NH2] displayed a Ki of 5 nM.
